Experiment [1] deals with T cell receptor of OT-I T cells (cognate to the SIINFEKL tetramer), on OT-I T cells. The experiment in a line: labeled NP incubated with an OT-I/OT-II T cell mixture (1:1); reference free αPD-1 (FIG. 7B).
Experiment [2] has as its target PD-1 on PD-1-positive cells (EL4 cells) (UniProt Q02242). As to the kind of experiment: inhibition of PD-L1-human Fc (10 µg/mL) binding to EL4 cells, flow cytometry, competitor PD-L1-human Fc. In general terms: In flow cytometry, cells or beads pass a laser one at a time.
The target is the same in experiment [3]. The experiment in a line: direct binding of Alexa Fluor 647-labeled sample to EL4 cells, flow cytometry, fraction of positive cells.
For experiment [4] the target is unchanged. The experiment in a line: inhibition of PD-L1-human Fc binding to EL4 cells; reference intact αPD-1.
For experiment [5] the target is unchanged. The experiment in a line: direct binding to EL4 cells, flow cytometry; reference intact αPD-1.
Experiment [6] has the same target. As to the kind of experiment: inhibition of PD-L1-human Fc binding to EL4 cells; reference soluble αPD-1-iTEP fusion.

In general, EC50 refers to the concentration needed to bring the measured effect to its halfway point. A higher EC50 goes with a need for much substance.

UniProt Q02242, sequence (Q02242 25-288 limits assumed): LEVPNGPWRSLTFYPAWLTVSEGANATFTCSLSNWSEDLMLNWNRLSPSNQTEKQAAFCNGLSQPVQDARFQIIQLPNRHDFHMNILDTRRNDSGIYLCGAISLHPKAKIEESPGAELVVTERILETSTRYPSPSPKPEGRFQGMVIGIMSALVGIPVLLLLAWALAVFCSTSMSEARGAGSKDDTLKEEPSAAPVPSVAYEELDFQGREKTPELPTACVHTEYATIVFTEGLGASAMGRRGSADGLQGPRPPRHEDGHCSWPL

For “SIINFEKL tetramer-guided αPD-1 NP, nanoparticle assembled from iTEP-αPD-1 and iTEP-tetramer (H2-Kb/SIINFEKL) mixed at a 1-to-10 ratio (from UniProt P22629 37-163; P01901 22-305)”, the targeting efficiency (OT-I:OT-II ratio of guided NPs divided by the OT-I:OT-II ratio of free αPD-1) in experiment [1] is 37.3.
In the case of “intact αPD-1 (anti-programmed death-1 antibody, RMP1-14 clone, IgG from hybridoma ascites)”, the EC50 in experiment [2] is 1320 nM; in experiment [3], 110 nM.
In experiment [4], “soluble αPD-1-iTEP fusion, αPD-1(scFv) fused to the amphiphilic diblock iTEP (GAGVPG)70-(GVLPGVG)56-(GC)4” had a fold lower inhibition capacity than intact αPD-1 of 3 fold. Further, the EC50 in experiment [2] was 4590 nM; in experiment [3], 400 nM.
Consider “αPD-1 NP, the nanoparticle form of the αPD-1-iTEP fusion, self-assembled and crosslinked by disulfide bonds”, for which, in experiment [5], the fold smaller EC50 than intact αPD-1 is 3 fold. For the same substance, the fold stronger avidity than intact αPD-1 in experiment [5] amounted to 4 fold. For the same substance, the fold higher inhibition capacity than the soluble αPD-1-iTEP fusion in experiment [6] turned out to be 3 fold. Besides, the EC50 in experiment [2] stood at 1190 nM; in experiment [3], 39 nM.
Take “αPD-1 scFv (recombinant single-chain variable fragment of the anti-PD-1 antibody clone RMP1-14), NH2-Histag(H6)-(GGGSG)3-VH-(GGGSG)4-VL-COOH”: the fold lower inhibition capacity than intact αPD-1 in experiment [4] came out at 3 fold. In addition, the values for the EC50 in experiment [2] and in experiment [3] were 4160 nM and 320 nM, respectively.

These data come from patent US20220112268A1.
